Tests used:
[1] = target: lymphoblastoid interferon (NIH reference Ga23-901-532)
[2] = target: leukocyte interferon (Sigma Product No. I-2396); assay: cell-based or functional assay

B1: murine anti-human IFN-α monoclonal antibody 9F3 (antibody, IgG2, V domains shown)
VL: DIVLTQSPASLAVSLGQRATISCRASQSVSTSSYSYMHWYQQKPGQPPKVLISYASNLESGVPARFSGSGSGTDFTLNIHPVEEGDTATYFCQHSWGIPRTFGAGTKLELRRAV
VH: EVQLQQSGPELVKPGASVKISCKTSGYTFTEYIIHWVKQGHGRSLEWIGSINPDYDITNYNQRFKGKATLTLDKSSRTAYLELRSLTSEDSAVYYCASWISDFFDYWGQGTTLMVSAAS
[1]
  EC50 (read off the bars); loss of protection by 3 IU/ml lymphoblastoid interferon, cytopathic effect: 3 ng/mL
  EC50 (read off the bars); loss of protection by 10 IU/ml lymphoblastoid interferon, cytopathic effect: 5 ng/mL
[2]
  neutralization of anti-viral activity: > 95%
